Holding throughout (details): protein: recombinant; tags: none (His6-SUMO removed by ULP-1); unlabeled; chain copies: 2; label: Cy3B (5' positive strand); CF660R (5' negative strand); blunt
Data set [1] has as its target T1, hMITF-sl (Homo sapiens, UniProt O75030-10 1-309). In words: smFRET; 300 mM KCl; Single-molecule: 0.5 nM DNA, 10 mM Tris pH 7.4, 0.1 mM EDTA, 165 or 300 mM KCl, 1 mM MgCl2, 143 mM 2-ME, 0.01% Tween-20, 0.1 mg/mL BSA. EMSA: 10 mM Hepes pH 7.9, 50 mM NaCl, 5 mM MgCl2, 0.1 mM EDTA, 2 mM DTT, 5% ethylene glycol, 5% glycerol, BSA, 30 min on ice. On the technique in general: In EMSA bound probe runs differently from free probe, usually more slowly.

The target in data set [2] is T2, hMITF-sp (Homo sapiens, UniProt O75030-10 1-413). The description is as above.
Data set [3] has as its target T3, hMITF-WT (Homo sapiens, UniProt O75030-9 1-419). Described as above.
Data set [4] concerns the target T1, hMITF-sl. In words: FCS; 300 mM KCl; Single-molecule: 0.5 nM DNA, 10 mM Tris pH 7.4, 0.1 mM EDTA, 165 or 300 mM KCl, 1 mM MgCl2, 143 mM 2-ME, 0.01% Tween-20, 0.1 mg/mL BSA. EMSA: 10 mM Hepes pH 7.9, 50 mM NaCl, 5 mM MgCl2, 0.1 mM EDTA, 2 mM DTT, 5% ethylene glycol, 5% glycerol, BSA, 30 min on ice.
Data set [5] concerns the target T2, hMITF-sp. The description is as above.
The target of data set [6] is T3, hMITF-WT. The description is as above.
Data set [7] concerns the target T1, hMITF-sl. In words: single-molecule fluorescence anisotropy; 300 mM KCl; Single-molecule: 0.5 nM DNA, 10 mM Tris pH 7.4, 0.1 mM EDTA, 165 or 300 mM KCl, 1 mM MgCl2, 143 mM 2-ME, 0.01% Tween-20, 0.1 mg/mL BSA. EMSA: 10 mM Hepes pH 7.9, 50 mM NaCl, 5 mM MgCl2, 0.1 mM EDTA, 2 mM DTT, 5% ethylene glycol, 5% glycerol, BSA, 30 min on ice.
Data set [8] has as its target T2, hMITF-sp. The description is as above.
Data set [9] deals with T3, hMITF-WT. The data set is described as above.

T1 sequence (O75030 other isoform, or with tags, fused parts or gaps): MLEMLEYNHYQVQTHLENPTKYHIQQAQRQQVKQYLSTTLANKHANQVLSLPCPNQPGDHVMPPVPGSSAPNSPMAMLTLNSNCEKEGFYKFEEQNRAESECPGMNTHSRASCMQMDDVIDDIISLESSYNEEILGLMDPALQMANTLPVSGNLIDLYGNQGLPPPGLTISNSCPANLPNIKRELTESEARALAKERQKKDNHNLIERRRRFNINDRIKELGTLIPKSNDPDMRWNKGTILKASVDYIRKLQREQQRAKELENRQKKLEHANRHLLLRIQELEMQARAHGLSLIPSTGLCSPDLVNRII
T3 sequence (O75030 other isoform, or with tags, fused parts or gaps): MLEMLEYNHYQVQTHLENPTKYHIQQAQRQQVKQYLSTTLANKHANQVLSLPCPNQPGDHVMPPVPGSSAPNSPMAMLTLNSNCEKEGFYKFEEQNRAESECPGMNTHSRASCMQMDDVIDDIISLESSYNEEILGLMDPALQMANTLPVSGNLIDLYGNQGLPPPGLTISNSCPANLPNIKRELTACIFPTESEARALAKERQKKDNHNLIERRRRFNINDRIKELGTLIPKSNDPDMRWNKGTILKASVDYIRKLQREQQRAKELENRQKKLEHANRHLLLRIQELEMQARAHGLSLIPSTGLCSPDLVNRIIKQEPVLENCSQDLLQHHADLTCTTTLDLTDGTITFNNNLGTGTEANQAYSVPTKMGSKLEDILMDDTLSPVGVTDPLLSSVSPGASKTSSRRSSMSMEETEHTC
T2 sequence (O75030 other isoform, or with tags, fused parts or gaps): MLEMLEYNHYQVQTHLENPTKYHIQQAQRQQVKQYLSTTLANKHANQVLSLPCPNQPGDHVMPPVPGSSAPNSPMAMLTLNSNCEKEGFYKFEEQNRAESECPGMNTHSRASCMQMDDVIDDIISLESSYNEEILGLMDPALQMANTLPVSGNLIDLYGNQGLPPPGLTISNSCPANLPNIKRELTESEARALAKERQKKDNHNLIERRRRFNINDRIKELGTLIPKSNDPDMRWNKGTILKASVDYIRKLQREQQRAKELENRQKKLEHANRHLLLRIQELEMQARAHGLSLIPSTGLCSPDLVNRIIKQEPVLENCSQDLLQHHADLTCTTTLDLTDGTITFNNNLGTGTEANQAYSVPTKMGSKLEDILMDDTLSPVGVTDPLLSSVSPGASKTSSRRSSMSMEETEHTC

B1: M-box smFRET probe (dsDNA)
DNA 1: GAGATCATGTGTTGA
DNA 2: TCAACACATGATCTC
modifications: 5' C6-amino linker on both strands
With B1, the Kd (commonly the concentration at which binding is half-saturated) in data set [1] worked out at 1.6 ± 0.5 nM; in [2], 1.7 ± 0.9 nM; in data set [3] it was 1.6 ± 1.4 nM; in [4] it was 3.1 ± 1.6 nM; in data set [5], 5.8 ± 3.5 nM; in data set [6] it was 4.5 ± 1.4 nM. Further, the dissociation constant Kd in data set [7] is 0.9 ± 0.4 nM; in data set [8] it was 1 ± 0.4 nM; in data set [9], 1.9 ± 0.6 nM.

These data come from paper PMC11467436, “Novel mechanisms of MITF regulation identified in a mouse suppressor screen”.
